Experimental data: patent publication US20090253630A1 (Eli Lilly, published 2009)
Groups on a side chain read outwards from the residue. No end group written: not given here. CO‑CH2 = CO-CH2 linker joining mPEG to the Lys side chain

T1: PTH receptor (PTHR1) on SaOS-2 osteosarcoma cells (UniProt Q03431 27-593, limits assumed)
T1 sequence (looked up): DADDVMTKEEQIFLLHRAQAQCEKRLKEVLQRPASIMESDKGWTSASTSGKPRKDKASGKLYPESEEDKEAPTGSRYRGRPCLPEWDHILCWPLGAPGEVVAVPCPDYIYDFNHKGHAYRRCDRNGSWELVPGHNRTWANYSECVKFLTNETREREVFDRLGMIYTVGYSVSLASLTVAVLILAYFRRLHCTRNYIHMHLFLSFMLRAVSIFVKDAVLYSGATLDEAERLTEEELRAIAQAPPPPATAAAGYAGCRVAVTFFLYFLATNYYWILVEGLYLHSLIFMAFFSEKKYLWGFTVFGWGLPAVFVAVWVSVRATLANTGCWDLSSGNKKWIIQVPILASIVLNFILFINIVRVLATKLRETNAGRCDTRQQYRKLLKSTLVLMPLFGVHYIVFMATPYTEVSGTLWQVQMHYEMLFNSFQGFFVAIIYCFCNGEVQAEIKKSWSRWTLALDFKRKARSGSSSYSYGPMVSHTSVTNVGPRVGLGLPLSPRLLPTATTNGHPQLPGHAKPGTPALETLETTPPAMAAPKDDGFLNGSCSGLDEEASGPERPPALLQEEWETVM


Tests used:
[1] = target: PTHR-emGFP expressed in transfected HEK 293 cells; assay: cell-based or functional assay
[2] = target: T1, PTH receptor (PTHR1) on SaOS-2 …; assay: cell-based or functional assay

Binder	PTHR1 internalization at 20 min, 100 nM compound, percent of vehicle only control (baseline=100%) [1]	PTHR1 internalization at 40 min, 100 nM compound, percent of vehicle only control (baseline=100%) [1]	PTHR1 internalization at 60 min, 100 nM compound, percent of vehicle only control (baseline=100%) [1]	PTHR1 internalization at 180 min, 100 nM compound, percent of vehicle only control (baseline=100%) [1]	Average EC50 (nM) (n = 2), cAMP induction in SaOS-2 cells (HTRF) [2]
SVSEIQLMHNLGRHLASMERVEWLRK([CO‑CH2-mPEG 5 kD])LLQDVHNF-NH2 (also: trifluoroacetate salt) [SEQ ID NO: 1 with 5 kD mPEG]	127 % of vehicle only control	93 % of vehicle only control	91 % of vehicle only control	92 % of vehicle only control	
SVSEIQLMHNLGRHLASMERVEWLRK([CO‑CH2-mPEG 2 kD])LLQDVHNF-NH2 (also: trifluoroacetate salt) [SEQ ID NO: 1 with 2 kD mPEG]	160 % of vehicle only control	120 % of vehicle only control	104 % of vehicle only control	102 % of vehicle only control	7.7
SVSEIQLMHNLGRHLASMERVEWLRKLLQDVHNF (not fully specified (C-terminus)) [SEQ ID NO: 1 but unpegylated and Lysine at amino acid 26]	106 % of vehicle only control	126 % of vehicle only control	113 % of vehicle only control	142 % of vehicle only control	
